Assay results: the Immune Epitope Database (IEDB)
Each block holds one sequence with its values, some of them ahead of it.

Columns and labels:
HLA-A*24:02 = assay: IEDB peptide-MHC binding, purified MHC/competitive/radioactivity; ≥ and ≤ were set here for values at or beyond the usual limits of such assays; details: source organism: Homo sapiens
HLA-A*01:01 [1] = assay: IEDB peptide-MHC binding, purified MHC/competitive/fluorescence; filed as Kd, often an IC50 or EC50 that approximates it; ≥ and ≤ were set here for values at or beyond the usual limits of such assays
HLA-A*02:01 = assay: as above; details: source organism: Human immunodeficiency virus 1
HLA-A*02:03 [2] = assay: as above; details: source organism: Human immunodeficiency virus 1
HLA-A*02:06 [3] = assay: as above; details: source organism: Human immunodeficiency virus 1
HLA-A*03:01 [4] = assay: as above
HLA-A*11:01 [5] = assay: as above; details: source organism: Human immunodeficiency virus 1
HLA-A*26:02 = assay: as above; details: source organism: Human immunodeficiency virus 1
HLA-A*26:03 = assay: as above; details: source organism: Human immunodeficiency virus 1
HLA-A*30:01 = assay: as above; details: source organism: Human immunodeficiency virus 1
HLA-A*31:01 [6] = assay: as above; details: source organism: Human immunodeficiency virus 1
HLA-A*68:02 [7] = assay: as above; details: source organism: Human immunodeficiency virus 1
HLA-A*69:01 = assay: as above; details: source organism: Human immunodeficiency virus 1
HLA-B*08:02 = assay: as above; details: source organism: Human immunodeficiency virus 1
HLA-B*15:17 = assay: as above; details: source organism: Human immunodeficiency virus 1
HLA-A*68:23 = assay: as above; details: source organism: Yersinia pseudotuberculosis IP 31758
HLA-B*15:01 = assay: as above; details: source organism: Yersinia pseudotuberculosis IP 31758
HLA-B*15:42 = assay: as above; details: source organism: Yersinia pseudotuberculosis IP 31758
HLA-B*45:06 = assay: as above; details: source organism: Yersinia pseudotuberculosis IP 31758
HLA-B*58:01 = assay: as above; details: source organism: Yersinia pseudotuberculosis IP 31758
HLA-B*83:01 = assay: as above; details: source organism: Yersinia pseudotuberculosis IP 31758
HLA-C*04:01 = assay: as above; details: source organism: Yersinia pseudotuberculosis IP 31758
HLA-A*02:05 = assay: IEDB peptide-MHC binding, purified MHC/competitive/radioactivity; filed as Kd, often an IC50 or EC50 that approximates it; ≥ and ≤ were set here for values at or beyond the usual limits of such assays; details: source organism: Hepatitis C virus (isolate Taiwan)
HLA-A*02:07 = assay: as above; details: source organism: Hepatitis C virus (isolate Taiwan)
HLA-B*27:05 = assay: IEDB peptide-MHC binding, purified MHC/competitive/radioactivity; ≥ and ≤ were set here for values at or beyond the usual limits of such assays; details: source organism: Human papillomavirus 16
HLA-B*40:02 [8] = assay: IEDB peptide-MHC binding, cellular MHC/competitive/fluorescence; ≥ and ≤ were set here for values at or beyond the usual limits of such assays; details: source organism: Homo sapiens
HLA-A*02:02 [9] = assay: IEDB peptide-MHC binding, purified MHC/competitive/radioactivity; ≥ and ≤ were set here for values at or beyond the usual limits of such assays; details: source organism: Hepatitis C virus (isolate H77)
HLA-A*02:03 [10] = assay: as above; details: source organism: Hepatitis C virus (isolate H77)
HLA-A*02:06 [11] = assay: as above; details: source organism: Hepatitis C virus (isolate H77)
HLA-A*01:01 [12] = assay: IEDB peptide-MHC binding, purified MHC/competitive/radioactivity; filed as Kd, often an IC50 or EC50 that approximates it; ≥ and ≤ were set here for values at or beyond the usual limits of such assays; details: source organism: Hepatitis C virus (isolate 1)
HLA-A*02:02 [13] = assay: as above; details: source organism: Hepatitis C virus (isolate 1)
HLA-A*02:03 [14] = assay: as above; details: source organism: Hepatitis C virus (isolate 1)
HLA-A*02:06 [15] = assay: as above; details: source organism: Hepatitis C virus (isolate 1)
HLA-A*03:01 [16] = assay: as above; details: source organism: Hepatitis C virus (isolate 1)
HLA-A*11:01 [17] = assay: as above; details: source organism: Hepatitis C virus (isolate 1)
HLA-A*31:01 [18] = assay: as above; details: source organism: Hepatitis C virus (isolate 1)
HLA-A*33:01 = assay: as above; details: source organism: Hepatitis C virus (isolate 1)
HLA-A*68:01 = assay: as above; details: source organism: Hepatitis C virus (isolate 1)
HLA-A*68:02 [19] = assay: as above; details: source organism: Hepatitis C virus (isolate 1)
HLA-B*07:02 = assay: as above; details: source organism: Hepatitis C virus (isolate 1)
HLA-B*08:01 = assay: as above; details: source organism: Hepatitis C virus (isolate 1)
HLA-B*18:01 = assay: as above; details: source organism: Hepatitis C virus (isolate 1)
HLA-B*35:01 = assay: as above; details: source organism: Hepatitis C virus (isolate 1)
HLA-B*40:01 = assay: as above; details: source organism: Hepatitis C virus (isolate 1)
HLA-B*40:02 [20] = assay: as above; details: source organism: Hepatitis C virus (isolate 1)
HLA-B*44:02 = assay: as above; details: source organism: Hepatitis C virus (isolate 1)
HLA-B*44:03 = assay: as above; details: source organism: Hepatitis C virus (isolate 1)
HLA-B*51:01 = assay: as above; details: source organism: Hepatitis C virus (isolate 1)
HLA-B*53:01 = assay: as above; details: source organism: Hepatitis C virus (isolate 1)
HLA-B*54:01 = assay: as above; details: source organism: Hepatitis C virus (isolate 1)
[21] = source organism: Human immunodeficiency virus 1
[22] = source organism: Yersinia pseudotuberculosis IP 31758

IC50 (HLA-A*24:02): 838 nM
Sequence: KYAGESFPGI

Sequence: VLYCVHQEI
Kd (HLA-A*01:01 [1]; [21]): ≥ 20000 nM
Kd (HLA-A*02:01): 7 nM
Kd (HLA-A*02:03 [2]): 8.8 nM
Kd (HLA-A*02:06 [3]): 4.05 nM
Kd (HLA-A*03:01 [4]; [21]): ≥ 20000 nM
Kd (HLA-A*11:01 [5]): ≥ 20000 nM
Kd (HLA-A*26:02): ≥ 20000 nM
Kd (HLA-A*26:03): ≥ 20000 nM
Kd (HLA-A*30:01): 12300 nM
Kd (HLA-A*31:01 [6]): ≥ 20000 nM
Kd (HLA-A*68:02 [7]): 233 nM
Kd (HLA-A*69:01): 824 nM
Kd (HLA-B*08:02): ≥ 20000 nM
Kd (HLA-B*15:17): 345 nM

Sequence: RQIRMTSTI
Kd (HLA-A*01:01 [1]; [22]): 3000 nM
Kd (HLA-A*03:01 [4]; [22]): ≥ 20000 nM
Kd (HLA-A*68:23): 427 nM
Kd (HLA-B*15:01): 163 nM
Kd (HLA-B*15:42): ≥ 5000 nM
Kd (HLA-B*45:06): ≥ 5000 nM
Kd (HLA-B*58:01): 617 nM
Kd (HLA-B*83:01): ≥ 5000 nM
Kd (HLA-C*04:01): ≥ 5000 nM

Sequence: YLVAYQATV
Kd (HLA-A*02:05): 8.5 nM
Kd (HLA-A*02:07): 2300 nM

Sequence: YRHYCYSL
IC50 (HLA-B*27:05): 12 nM

IC50 (HLA-B*40:02 [8]): 1900 nM
Sequence: KEHSLQVSP

Sequence: KLVALGINAV
IC50 (HLA-A*02:02 [9]): 15 nM
IC50 (HLA-A*02:03 [10]): 75 nM
IC50 (HLA-A*02:06 [11]): 3.7 nM
Kd (HLA-A*01:01 [12]): 9010 nM
Kd (HLA-A*02:02 [13]): 82.7 nM
Kd (HLA-A*02:03 [14]): 11.1 nM
Kd (HLA-A*02:06 [15]): 3.94 nM
Kd (HLA-A*03:01 [16]): 16600 nM
Kd (HLA-A*11:01 [17]): ≥ 69800 nM
Kd (HLA-A*31:01 [18]): 13600 nM
Kd (HLA-A*33:01): ≥ 70000 nM
Kd (HLA-A*68:01): ≥ 70200 nM
Kd (HLA-A*68:02 [19]): 12800 nM
Kd (HLA-B*07:02): 2170 nM
Kd (HLA-B*08:01): ≥ 70000 nM
Kd (HLA-B*18:01): ≥ 70500 nM
Kd (HLA-B*35:01): ≥ 69900 nM
Kd (HLA-B*40:01): ≥ 69600 nM
Kd (HLA-B*40:02 [20]): ≥ 70800 nM
Kd (HLA-B*44:02): ≥ 70200 nM
Kd (HLA-B*44:03): ≥ 70100 nM
Kd (HLA-B*51:01): ≥ 47000 nM
Kd (HLA-B*53:01): ≥ 69900 nM
Kd (HLA-B*54:01): 19200 nM
